{
  "source": "paper PMC11784315",
  "origin": "cited, not measured here",
  "target": "Spike S1 S1 (Severe acute respiratory syndrome coronavirus 2) (UniProt P0DTC2)",
  "data": [
    {"substance": "DC-SIGN (from UniProt Q9NNX6)", "values": [
      {"measurement": "Kd", "value": 420, "unit": "nM"}
    ]}
  ]
}
